Laboratory results published in patent US20210095021A1 (MacroGenics, published 2021).

B1: anti-CD3 × anti-HIV gp120 bispecific diabody (anti-HIV gp120 antibody A32 and humanized anti-CD3 Antibody 2 binding domains) (bispecific antibody)
chain 1: QSALTQPPSASGSPGQSVTISCTGTSSDVGGYNYVSWYQHHPGKAPKLIISEVNNRPSGVPDRFSGSKSGNTASLTVSGLQAEDEAEYYCSSYTDIHNFVFGGGTKLTVLGGGSGGGGEVQLVESGGGLVQPGGSLRLSCAASGFTFSTYAMNWVRQAPGKGLEWVGRIRSKYNNYATYYADSVKGRFTISRDDSKNSLYLQMNSLKTEDTAVYYCVRHGNFGNSYVSWFAYWGQGTLVTVSSGGCGGGEVAALEKEVAALEKEVAALEKEVAALEK
chain 2: QAVVTQEPSLTVSPGGTVTLTCRSSTGAVTTSNYANWVQQKPGQAPRGLIGGTNKRAPWTPARFSGSLLGGKAALTITGAQAEDEADYYCALWYSNLWVFGGGTKLTVLGGGGSGGGGQVQLQESGPGLVKPSQTLSLSCTVSGGSSSSGAHYWSWIRQYPGKGLEWIGYIHYSGNTYYNPSLKSRITISQHTSENQFSLKLNSVTVADTAVYYCARGTRLRTLRNAFDIWGQGTLVTVSSGGCGGGKVAALKEKVAALKEKVAALKEKVAALKE
B2: anti-CD3 × anti-HIV env bispecific diabody (anti-HIV env antibody 7B2 and humanized anti-CD3 Antibody 2 binding domains) (bispecific antibody)
chain 1: DIVMTQSPDSLAVSPGERATIHCKSSQTLLYSSNNRHSIAWYQQRPGQPPKLLLYWASMRLSGVPDRFSGSGSGTDFTLTINNLQAEDVAIYYCHQYSSHPPTFGHGTRVEIKGGGSGGGGEVQLVESGGGLVQPGGSLRLSCAASGFTFSTYAMNWVRQAPGKGLEWVGRIRSKYNNYATYYADSVKGRFTISRDDSKNSLYLQMNSLKTEDTAVYYCVRHGNFGNSYVSWFAYWGQGTLVTVSSGGCGGGEVAALEKEVAALEKEVAALEKEVAALEK
chain 2: QAVVTQEPSLTVSPGGTVTLTCRSSTGAVTTSNYANWVQQKPGQAPRGLIGGTNKRAPWTPARFSGSLLGGKAALTITGAQAEDEADYYCALWYSNLWVFGGGTKLTVLGGGGSGGGGQVQLVQSGGGVFKPGGSLRLSCEASGFTFTEYYMTWVRQAPGKGLEWLAYISKNGEYSKYSPSSNGRFTISRDNAKNSVFLQLDRLSADDTAVYYCARADGLTYFSELLQYIFDLWGQGARVTVSSGGCGGGKVAALKEKVAALKEKVAALKEKVAALKE

What was measured:
[1] = molecular target: HIV gp160 (HxB2) expressed by tetracycline-induced Jurkat 522 FY cells (HIV (HxB2), UniProt P04578 33-856); experiment: cell-based or functional assay
[2] = molecular target: HIV gp140 (CM244, subtype AE, R5-tropic) expressed by HEK 293 D371 cells (HIV (CM244, subtype AE)); experiment: cell-based or functional assay

Binder	EC50 (ng/mL) of CD8-mediated cytotoxicity, pan T cells, 24 h [1]	EC50 (ng/mL) of CD8-mediated cytotoxicity, pan T cells, 24 h [2]
B1	0.75 ng/mL	0.024 ng/mL
B2	0.49 ng/mL	0.006 ng/mL
